Experimental data taken from patent US20150353951A1, “SYNTHETIC GLYPHOSATE-RESISTANT GENE AND USE THEREOF” (priority 2012, published 2015).
“And” between values parts separate entries of the source, which are not always exact repeats. Equal values may be shown once. “Also recorded” adds a separate entry of the source.

What was measured:
G2-aroA protein = test: Double-antibody sandwich ELISA detection of G2-aroA protein expression in transgenic maize leaves; assay type: in vivo; details: for G2-aroA protein concentration: T6 generation transgenic maize, five-leaf stage, leaf fresh weight, single plants 1-4; for expression amount of G2-aroA protein in per gram (fresh weight) of leaf plate: transgenic maize
Procedure: The sample extracting solution: 25 mM of Tris-Cl (pH8.0), 10 mM of KCl, 20 mM of MgCl2.6H2O, 1 mM of DTT, 1 mM of PMSF (added before using).
Taking T6 generation transgenic maize plants (including plants transformed with the mG2-aroA gene and plants transformed with G2-aroA gene) at the same growth state (five-leaf stage), and taking about 1 g (fresh weight) of each function leaf (top-three leaves) plates, then grinding in liquid nitrogen. Transferring into 10 ml of centrifugal tube, into which 3 ml of sample extracting solution was added, and shaking strongly. Then centrifugalizing for 1 h at 4° C. The supernatant was taken as a sample to be detected and stand by service. Since the transformed genes are different, there are two samples to be detected, that is, a sample derived from mG2-aroA transgenic plants (sample to be detected is mG2-aroA) and a sample derived from G2-aroA transgenic plants (sample to be detected is G2-aroA). At the same time, the T6 generation maize plants transformed with pS3300-UG0 blank vector and the non-transgenic maize plants were used as controls.
The weight weighting when the leaf plates were ground in liquid nitrogen into powder samples and added into centrifugal tube containing the extracting solution subtracts that weighting before adding sample into centrifugal tube containing the extracting solution to obtain the fresh weight described above.
(1) Coating: the primary antibody (rabbit antibody) with concentration of 1.5 mg/ml (preparation method, see last part of this specification) against G2-aroA protein was diluted in coating buffer. And then after dilution added into ELIAS plate with a volume ratio of 1:1000 between polyclonal antibody against G2-aroA protein and coating buffer, 100 μL per well, and coating overnight in wet box at 4° C. […]
In another aspect, the sample to be detected prepared in step 1 was diluted with sample buffer in a ratio of 1:5, and then 100 μL of diluted sample was added to each well. […]
(9) Measurement: the OD value was measured at 405 nm.
(10) Plotting the standard curve: the standard solution concentration of G2-aroA protein of various of concentration (ng/mL) was plotted on X axis, and the OD value of G2-aroA protein standard measured in step (9) was plotted on Y axis, then the standard curve was plotted by EXCEL.
(11) The OD value of sample to be detected measured in step (9) was used in standard curve equation obtained in step (10) to calculate the content of G2-aroA protein in sample to be detected.
The content of G2-aroA protein in fresh weight=the content of G2-aroA protein of sample to be detected×the volume of sample to be detected/fresh weight of the sample, unit: μg/g. […]

[1] = tested on: T6 generation transgenic maize plants; test: Detection of herbicide (Roundup/glyphosate) resistance of transgenic maize plants in field; assay type: in vivo; details: for phytotoxicity after Roundup treatment: 800 ml/mu Roundup (41% glyphosate) at 5-6 leaf age; for phytotoxicity response at late stage of plants growth: 800 ml/mu Roundup at 5-6 leaf age
Procedure: 1. the experimental materials: T6 generation transgenic maize plants, including plants transformed with mG2-aroA gene, plants transformed with G2-aroA gene, and plants transformed with pS3300-UG0 blank vector. At the same time, the non-transgenic maize plants were used as a control.
2. experiment design: 5M of row length, 3 row plots, 3 times of repeat, density: 60×35 cm
3. experiment treatment: applying Roundup (containing 41% of glyphosate, recommbinated applying amount in field is 150-250 ml/mu) in an amount of 800 ml/mu.
4. the experiment treatment timing: 5-6 leaf age. The experimental result was observed 7 days later.

| Molecule | G2-aroA protein concentration (G2-aroA protein) | expression amount of G2-aroA protein in per gram (fresh weight) of leaf plate (G2-aroA protein) | phytotoxicity after Roundup treatment [1] | phytotoxicity response at late stage of plants growth [1] |
| --- | --- | --- | --- | --- |
| G2-aroA: initial prokaryote glyphosate-resistant gene, SEQ ID NO. 1; tested as T6 transgenic maize (nucleic acid) DNA: ATGGCGTGTTTGCCTGATGATTCGGGTCCGCATGTCGGCCACTCCACGCCACCTCGCCTTGACCAGGAGCCTTGTACCTTGAGTTCGCAGAAAACCGTGACCGTTACACCGCCCAACTTCCCCCTCACTGGCAAGGTCGCGCCCCCCGGCTCCAAATCCATTACCAACCGTGCGCTGTTGCTGGCGGCATTGGCCAAGGGCACCAGCCGTTTGAGCGGTGCGCTCAAAAGCGATGACACGCGCCACATGTCGGTCGCCCTGCGGCAGATGGGCGTCACCATCGACGAGCCGGACGACACCACCTTTGTGGTCACCAGCCAAGGCTCGCTGCAATTGCCGGCCCAGCCGTTGTTCCTCGGCAACGCTGGCACCGCCATGCGCTTTCTCACGGCTGCCGTGGCCACCGTGCAAGGCACCGTGGTACTGGACGGCGACGAGTACATGCAAAAACGCCCGATTGGCCCGCTGCTGGCTACCCTGGGCCAGAACGGCATCCAGGTCGACAGCCCCACCGGTTGCCCACCGGTCACCGTGCACGGCATGGGCAAGGTCCAGGCCAAGCGTTTCGAGATTGATGGTGGTTTGTCCAGCCAGTACGTATCGGCCCTGCTGATGCTCGCGGCGTGCGGCGAAGCGCCGATTGAAGTGGCGCTGACCGGCAAGGATATCGGTGCCCGTGGCTACGTGGACCTGACCCTCGACTGCATGCGTGCCTTCGGGGCCCAGGTGGACGCCGTGGACGACACCACCTGGCGCGTCGCCCCCACCGGCTATACCGCCCATGATTACCTGATCGAACCCGATGCGTCCGCCGCCACGTATTTGTGGGCCGCAGAAGTGCTGACCGGTGGGCGTATCGACATCGGCGTAGCCGCGCAGGACTTCACCCAGCCCGACGCCAAGGCCCAGGCCGTGATTGCGCAGTTCCCGAACATGCAAGCCACGGTGGTAGGCTCGCAAATGCAGGATGCGATCCCGACCCTGGCGGTGCTCGCCGCGTTCAACAACACCCCGGTGCGTTTCACTGAACTGGCGAACCTGCGCGTCAAGGAATGTGACCGCGTGCAGGCGCTGCACGATGGCCTCAACGAAATTCGCCCGGGCCTGGCGACCATCGAGGGCGATGACCTGCTGGTCGCCAGCGACCCGGCCCTGGCAGGCACCGCCTGCACCGCACTGATCGACACCCACGCCGACCATCGCATCGCCATGTGCTTTGCCCTGGCCGGGCTTAAAGTCTCGGGCATTCGCATTCAAGACCCGGACTGCGTGGCCAAGACCTACCCTGACTACTGGAAAGCCCTGGCCAGCCTGGGCGTTCACCTAAACGACTGA | 10.671 µg/g and 20.227 µg/g and 14.237 µg/g and 15.096 µg/g | 3.735 µg | very serious phytotoxicity, and all plants showed yellowing, abnormalities; also recorded: phytotoxicity was very serious, plants all show yellowing, abnormalities | most of plants showed that the tassels did not differentiate, and ears did not silk or plants were short |
| mG2-aroA: codons optimized glyphosate-resistant gene, SEQ ID NO. 2, encoding G2-aroA protein; tested as T6 transgenic maize (nucleic acid) DNA: ATGGCGTGCCTCCCTGACGATTCTGGTCCGCATGTCGGACACTCCACTCCACCTCGCCTGGACCAGGAGCCCTGTACCTTGTCGTCCCAGAAGACGGTTACGGTGACGCCACCCAACTTCCCGTTGACTGGGAAGGTCGCTCCACCTGGCTCCAAGTCTATCACCAACCGTGCACTGTTGCTGGCTGCGTTGGCCAAAGGGACCAGTCGGTTGAGCGGTGCGCTCAAGTCGGATGACACTCGCCACATGTCGGTGGCTCTGAGGCAGATGGGTGTCACGATCGACGAACCGGATGACACGACCTTCGTGGTCACGAGCCAAGGCAGCCTCCAGCTGCCAGCCCAACCGTTGTTCCTCGGCAATGCTGGCACCGCTATGCGCTTCCTCACGGCTGCGGTGGCCACCGTCCAAGGCACGGTCGTTCTGGATGGCGATGAGTACATGCAGAAGCGTCCCATCGGACCCTTGCTGGCGACGCTTGGACAGAACGGCATCCAAGTGGATTCTCCCACCGGTTGCCCACCCGTCACCGTGCACGGCATGGGCAAGGTCCAAGCGAAGCGGTTCGAGATCGACGGTGGGCTCTCCTCCCAGTACGTCTCAGCCCTGCTCATGCTCGCTGCGTGTGGCGAGGCACCGATCGAGGTTGCGCTCACAGGCAAGGACATCGGTGCCAGAGGGTACGTGGACCTGACCCTCGACTGCATGAGAGCCTTTGGAGCACAGGTTGACGCAGTGGACGACACGACCTGGAGGGTCGCTCCCACAGGGTACACCGCTCATGACTATCTCATCGAACCCGACGCCAGCGCTGCGACGTACTTGTGGGCAGCCGAGGTCCTGACCGGTGGCAGGATTGATATTGGCGTTGCTGCGCAGGACTTCACCCAACCGGACGCCAAGGCTCAAGCCGTGATTGCGCAGTTCCCTAACATGCAAGCCACCGTGGTTGGCTCCCAGATGCAGGACGCGATCCCGACCCTGGCTGTCCTCGCAGCCTTCAACAATACTCCCGTGCGCTTCACTGAGCTTGCCAACCTTAGGGTCAAGGAGTGCGATCGCGTGCAAGCCCTGCACGATGGGCTCAACGAGATCAGGCCAGGCCTCGCCACCATCGAGGGAGACGACCTGCTCGTGGCCAGCGACCCAGCGCTTGCAGGGACAGCCTGCACAGCCCTGATCGACACCCACGCTGACCATCGCATCGCGATGTGCTTTGCCCTGGCTGGCCTTAAGGTCTCAGGCATTCGCATTCAGGACCCTGACTGCGTGGCCAAGACCTACCCTGACTACTGGAAGGCTCTTGCCAGCCTTGGCGTTCACCTCAACGACTGATGA | 3.304 µg/g and 2.977 µg/g and 4.321 µg/g and 4.339 µg/g | up to 15.057 μg | phytotoxicity was not obvious, they grew normally | no phytotoxicity response |
